{"source": "patent US8389237B2", "about": "“Antibodies against RAMP3” (Medella Therapeutics Limited, priority 2007, dated 2013)", "molecules": {"B1": {"name": "JF2: monoclonal anti-RAMP-3 antibody, IgG, IgG1 subtype (antibody, V domains shown)", "VH": "QVQLVESGGGVVQPGKSLRLSCAASGFTFSSYGMYWVRQAPGKGLEWVAVISYDGSNKYYADSVKGRFTISRDNSKNTLYLQMNSLRAEDTAVYNCAKEMRYGSGRKAIKYYYGMDVWGQGTTVTVSSASTKGPSVFPLA", "VL": "DIQMTQSPSSLSASLGERVSLTCRASQDIGSNLNWLQQEPDGTIKRLIYATSSLDSGVPKRFSGSRSGSDYSLTISSLESEDFVDYYCLQYASSPPTFGGGTKLEIKRADAAPTVSIFPPSSKLG"}}, "key": {"[1]": {"tested_on": "U-87 glioblastoma cell line", "experiment": "MTT Cell Proliferation assay, U-87 glioblastoma cell line", "assay_type": "cell-based", "details": "U-87, 10 μg dose, after 8 days of culture; FIG. 14", "experimental": "The cell culture was carried out under aseptic conditions on Nunclon™ treated tissue culture plastics. The U-87 glioblastoma cells (ATCC noHTB-14) used for this project were cultured in standard EMEM (Earle's Minimum Essential Medium) media (Gibco) with 10% Fetal Calf Serum (Gibco) and 5% Penicillin/Streptomycin antibiotic (Sigma). The frozen cells were thawed at 37° C. for 2 minutes. The cells were then immediately transferred to 75 cm2 flask with 10 ml of media. The culture was incubated at 37° C. with 5% CO2 to attain confluency. The media was changed every three days and the cells were then subcultured after reaching 80-90% confluency. […]\nThe U87 glioblastoma cells were grown under standard conditions (as mentioned above). The total number of cells were counted using a haemocytometer (Hawksley) and the concentration was calculated using the following equation: […]\nTwo groups of proliferation studies were carried out for each antibody. […] Mouse anti-GST antibody concentration responses were also calculated the similar way since it was the antibody control for the experiment\nIn order to check for consistency of the cells seeded, a 12-24 hours study was performed. […] The plate was read for absorbance at 595 nm (Spectramax M5e), using the software Softmax™ Pro 5.2.X 100035.\nThe proliferation/survival of SW-13 and U87 (Glioblastoma cell line) cells was determined using the MTT assay."}, "[2]": {"tested_on": "U-87 glioblastoma cancer cell line", "experiment": "Apoptosis assay (caspase-3), U-87 cells", "assay_type": "cell-based", "details": "U-87, 10 μg; FIG. 22", "experimental": "(§1) The apoptosis assay was carried out using the Caspase-3 Assay kit (Sigma).\nU-87 cells were prepared under standard conditions. A cell solution of 2×10^7 cells was made up in 2 ml of media were dispensed into polypropylene tubes.\n(§2) 2×10^7 cells wens taken for each treatment. The treatment groups were, antibody treated cells (for each antibody), anti-Fas antibody, antibody and adrenomedullin treated cells, blank and adrenomedullin treated cells. The positive control used was anti-Fas monoclonal antibody (MBL). The final concentration of antibodies used was […] and for anti-Fas antibody was 500 ng.\n(§3) The treated cell suspension in 2 ml media were incubated for 3 hours at 37° C. in a 5% CO2 atmosphere.\nThe assay buffer and lysis buffer given in the kit was prepared using the given 17 megohm water as per the standard instructions given in the protocol. After 3 hours of incubation, the cells were centrifuged at 600 g for 5 minutes at 4° C. The supernatant was discarded and the cells were resuspended in 1 ml PBS. The cells were once again centrifuged using the above mentioned conditions and the supernatant was discarded. The cell pellet was resuspended in 200 μl 1× lysis buffer and incubated on ice for 20 minutes. The lysed cells were centrifuged at 20,000 g for 15 minutes at 4° C. […] The absorbance was read at 405 nm (Spectramax M5e), using the software Softmax™ Pro 5.2.36."}, "[3]": {"tested_on": "MDA-MB-436-GFP breast cancer cell line", "experiment": "MTT Cell Proliferation assay, MDA-MB-436-GFP breast cancer cell line", "assay_type": "cell-based", "details": "after 8 days of culture, FIG. 17", "experimental": "(§4) Two groups of proliferation studies were carried out for each antibody. One group was used to study the effect on proliferation by the antibody in presence of endogenous adrenomedullin, while the other group was used to the study the effects of antibody in presence of exogenously added adrenomedullin. Varying concentrations of antibody were prepared in PBS to result in final well concentrations of 10 μg, 1 μg, 100 ng, 10 ng, 1 ng, 100 pg, 10 pg and 1 pg. Six replicates of each concentration of each antibody was carried out. This dose range was used in both groups. Adrenomedullin was added to the appropriate group to a final well concentration of 200 nM. 5-FluoroUracil (Fluka) was used as a positive control (100 mM) for the reduction in proliferation. PBS controls were also prepared. The plates were then incubated under standard conditions. Replacement and re-dosing of antibody and controls was carried out every 2 days. Mouse anti-GST antibody concentration responses were also calculated the similar way since it was the antibody control for the experiment\n(§5) In order to check for consistency of the cells seeded, a 12-24 hours study was performed. Further time points were carried out at 2, 4, 6 and 8 days. […] The plate was read for absorbance at 595 nm (Spectramax M5e), using the software Softmax™ Pro 5.2.X 100035."}, "[4]": {"tested_on": "PC-3 prostate cancer cell line", "experiment": "MTT Cell Proliferation assay, PC-3 prostate cancer cell line", "assay_type": "cell-based", "details": "PC-3, 10 μg, after 8 days of culture, FIG. 19", "experimental": "as §4, §5"}, "[5]": {"tested_on": "MDA-MB-436-GFP breast cancer cells", "experiment": "MDA-MB-436-GFP xenograft in CD1 nude mice", "assay_type": "in vivo, CD1 nude (nu/nu) mice", "details": "right flank of CD1 nude mice, 6 weeks", "experimental": "MDA-MB-436-GFP cells were cultured in RPMI media containing penicillin (50 U/ml), streptomycin (50 μg/ml), glutamine (1 mg/ml), and supplemented with 10% fetal bovine serum. Cells were cultured under a humid 5% CO2/95% air atmosphere, and fed with fresh medium every 2 days, being routinely monitored for mycoplasma contamination. Cells growing exponentially were harvested using Trypsin EDAT solution. All culture media components were purchased from Invitrogen Life Technologies\nAnimal work was performed in the animal facility of the University of Sheffield. Male 4-to-5-week-old CD1 nude (nu/nu) mice were used. Mice were acclimated and housed in sterile cages in groups of four or less under laminar flow hoods in a temperature-controlled room with a 12-hour light/12-hour dark schedule, and fed autoclaved chow and water ad libitum.\nCD1 nude (nu/nu) nude mice were implanted with MDA-MB-436-GFP breast cancer cells. For the cell implantations, MDA-MB-436-GFP cells, grown in culture, were washed with PBS, dispersed in a 0.05% solution of trypsin, and resuspended. […] Tumors were measured with a digital venier calliper (Site), and tumour volumes were determined using the formula width×length×height×0.52 (for ellipsoid form), these measurement were taken twice weekly. […]"}, "[6]": {"tested_on": "HCT116 colon cancer cell line", "experiment": "MTT Cell Proliferation assay, HCT116 colon cancer cell line", "assay_type": "cell-based", "details": "HCT116, 10 μg, after 8 days of culture; FIG. 21", "experimental": "as §4, §5"}, "[7]": {"tested_on": "MDA-MB-436-GFP breast cancer cell line", "experiment": "Apoptosis assay (caspase-3), MDA-MB-436-GFP cells", "assay_type": "cell-based", "details": "10 μg, FIG. 23", "experimental": "as §1, §2, §3\nThe assay buffer and lysis buffer given in the kit was prepared using the given 17 megohm water as per the standard instructions given in the protocol. After 3 hours of incubation, the cells were centrifuged at 600 g for 5 minutes at 4° C. The supernatant was discarded and the cells were resuspended in 1 ml PBS. The cells were once again centrifuged using the above mentioned conditions and the supernatant was discarded. The cell pellet was resuspended in 200 μl 1× lysis buffer and incubated on ice for 20 minutes. The lysed cells were centrifuged at 20,000 g for 15 minutes at 4° C. The cell lysine were then laid out in a 96 well flat bottomed plate as shown in FIG. 6 and incubated overnight. The absorbance was read at 405 nm (Spectramax M5e), using the software Softmax™ Pro 5.2.36."}}}
{"molecule": "B1", "values": [{"measurement": "reduction in proliferation", "setting": "[1]", "value": 40, "unit": "%"}, {"measurement": "increase levels of caspase-3", "setting": "[2]", "value": 26, "unit": "%"}, {"measurement": "reduction in proliferation", "setting": "[3]; 10 μg (greatest reduction)", "value": 12, "unit": "%"}, {"measurement": "reduction in proliferation compared to controls", "setting": "[3]; doses 1 μg and 10 μg", "value": "significant reduction in proliferation"}, {"measurement": "reduction in proliferation", "setting": "[4]; in the absence of exogenously added adrenomedullin", "value": 22, "unit": "%"}, {"measurement": "reduction in proliferation", "setting": "[4]; in the presence of adrenomedullin", "value": 37, "unit": "%"}, {"measurement": "tumour volume", "setting": "[5]; versus control groups, FIG. 24", "value": "rates of growth within the treatment groups are considerably slower"}, {"measurement": "tumour weights", "setting": "[5]; calculated back using the volumes of tumours, FIG. 25", "value": "still remain below control groups"}, {"measurement": "reduction in proliferation compared to controls", "setting": "[6]", "value": "no statistically significant reduction in proliferation"}, {"measurement": "levels of caspase-3 (apoptosis), significance", "setting": "[7]", "value": "only antibody JB3 showed a significant increased"}]}
